Patent US20110318347A1

Key:
[1] = molecular target: human CXCR4 (human); experiment: competition vs [125I]-238D2 (3 nM), membranes of HEK293T cells expressing CXCR4
[2] = molecular target: human CXCR4 (human); experiment: periplasmic fraction (1:10), displacement of [125I]-CXCL12, HEK293T-CXCR4 membranes; - = 0-29%, + = 30-69%, ++ = 70-100%
[3] = molecular target: human CXCR4 (human)
[4] = molecular target: human CXCR4 (human); experiment: competition with [125I]-238D2 on HEK293T-CXCR4 membranes
[5] = molecular target: human CXCR4 (human); experiment: competition vs [125I]-CXCL12 (40 pM), membranes of HEK293T cells expressing CXCR4
[6] = molecular target: human CXCR4 (human); experiment: competition with [125I]-CXCL12 on HEK293T-CXCR4 membranes
[7] = molecular target: CCR5 (UniProt P51681); experiment: cell-based or functional assay
Sequence of CCR5 (P51681 whole entry): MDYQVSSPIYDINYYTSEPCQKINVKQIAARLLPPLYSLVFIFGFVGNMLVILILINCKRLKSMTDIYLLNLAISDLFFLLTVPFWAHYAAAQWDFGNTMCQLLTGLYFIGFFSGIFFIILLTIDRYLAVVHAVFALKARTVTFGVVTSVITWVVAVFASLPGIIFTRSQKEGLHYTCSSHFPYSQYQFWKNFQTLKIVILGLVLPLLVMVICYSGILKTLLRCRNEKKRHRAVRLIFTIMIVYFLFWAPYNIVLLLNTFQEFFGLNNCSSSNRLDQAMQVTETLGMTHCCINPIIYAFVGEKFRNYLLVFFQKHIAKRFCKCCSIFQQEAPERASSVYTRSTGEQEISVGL

[8] = molecular target: human CXCR4 (human); experiment: cell-based or functional assay
[9] = molecular target: human CXCR4 (human); experiment: competition with [125I]-238D4 on HEK293T-CXCR4 membranes
[10] = molecular target: human CXCR4 (human); experiment: competition vs [125I]-238D4 (3 nM), membranes of HEK293T cells expressing CXCR4

B1: Nanobody 238D4 (VHH, from a related filing, part only)
VHH: EVQLMESGGGLVQAGGSLRLSCAASGRTFNNYAMGWFRRAPGKEREFVAAITRSGVRSGVSAIYGDSVKDRFTISRDNAKNTLYLQMNSLKPEDTAVYTCAASAIGSGALRRFEYDYSGQGTQVTVSS
**Q.** B1 was tested. Which Displacem. (%) [1] did it give?
**A.** 101%

**Q.** And the pKi [1]?
**A.** 8.8

**Q.** What about the percent inhibition of specific [125I]-CXCL12 binding [2] of the same binder?
**A.** 70 to 100%

**Q.** What about the IC50 (read off the curve), migration of Jurkat cells towards 0.3 nM CXCL12 [3] of the same binder?
**A.** 9 nM

**Q.** And the IC50 (read off the curve) [4]?
**A.** 3 nM

**Q.** What about the Displacem. (%) [5] of the same binder?
**A.** 99%

**Q.** What about the pKi [5] of the same binder?
**A.** 8.22

**Q.** What about the IC50 (read off the curve) [6] of the same binder?
**A.** 10 nM

**Q.** And the Anti-HIV-1 activity (in nM), PBMC/BaL [7]?
**A.** > 100 nM

**Q.** What about the Anti-HIV-1 activity (in nM), U87.CD4.CCR5/BaL [7] of the same binder?
**A.** > 500 nM

**Q.** And the IC50, HIV-1 BaL, PBMC donor 1 [7]?
**A.** > 1 µg/mL

**Q.** And the IC50, HIV-1 BaL, PBMC donor 2 [7]?
**A.** > 1 µg/mL

**Q.** What about the IC90, HIV-1 BaL, PBMC donor 1 [7] of the same binder?
**A.** > 1 µg/mL

**Q.** What about the IC90, HIV-1 BaL, PBMC donor 2 [7] of the same binder?
**A.** > 1 µg/mL

**Q.** What about the nM IC50, HIV-1 BAL, PBMC donor 1 [7] of the same binder?
**A.** > 67 nM

**Q.** And the nM IC50, HIV-1 BAL, PBMC donor 2 [7]?
**A.** > 67 nM

**Q.** And the Anti-HIV-1 activity (in nM), MT-4/HE [8]?
**A.** 82 nM

**Q.** What about the Anti-HIV-1 activity (in nM), MT-4/NL4.3 [8] of the same binder?
**A.** 40.3 nM

**Q.** What about the Anti-HIV-1 activity (in nM), PBMC/HE [8] of the same binder?
**A.** 13.6 nM

**Q.** And the Anti-HIV-1 activity (in nM), PBMC/NL4.3 [8]?
**A.** 13.7 nM

**Q.** And the Anti-HIV-1 activity (in nM), U87.CD4.CXCR4/NL4.3 [8]?
**A.** 107 nM

**Q.** What about the CRE activation, HEK293T-CXCR4-CREbgal/0.01-100 nM CXCL12, Imax (%) [8] of the same binder?
**A.** 90%

**Q.** And the CRE activation, HEK293T-CXCR4-CREbgal/0.01-100 nM CXCL12, pKi or pIC50 (pKB by the text) [8]?
**A.** 7.7

**Q.** What about the Chemotaxis, Jurkat/0.3 nM CXCL12, Imax (%) [8] of the same binder?
**A.** 101%

**Q.** And the Chemotaxis, Jurkat/0.3 nM CXCL12, pKi or pIC50 [8]?
**A.** 8.31

**Q.** What about the IC50, HIV-1 NL4.3, MT-4 cells, exp. 1 [8] of the same binder?
**A.** 0.833 µg/mL

**Q.** What about the IC50, HIV-1 NL4.3, PBMC donor 1 [8] of the same binder?
**A.** > 1 µg/mL

**Q.** And the IC50, HIV-1 NL4.3, PBMC donor 2 [8]?
**A.** 0.551 µg/mL

**Q.** What about the IC50, HIV-1 UG270, PBMC donor 1 [8] of the same binder?
**A.** > 1 µg/mL

**Q.** What about the IC50, HIV-1 UG270, PBMC donor 2 [8] of the same binder?
**A.** > 1 µg/mL

**Q.** And the IC90, HIV-1 NL4.3, MT-4 cells, exp. 1 [8]?
**A.** > 1 µg/mL

**Q.** What about the IC90, HIV-1 NL4.3, PBMC donor 1 [8] of the same binder?
**A.** > 1 µg/mL

**Q.** What about the IC90, HIV-1 NL4.3, PBMC donor 2 [8] of the same binder?
**A.** > 1 µg/mL

**Q.** And the IC90, HIV-1 UG270, PBMC donor 1 [8]?
**A.** > 1 µg/mL

**Q.** What about the IC90, HIV-1 UG270, PBMC donor 2 [8] of the same binder?
**A.** > 1 µg/mL

**Q.** What about the IP accumulation, HEK293T-CXCR4-Gαqi5/30 nM CXCL12, Imax (%) [8] of the same binder?
**A.** 90%

**Q.** And the IP accumulation, HEK293T-CXCR4-Gαqi5/30 nM CXCL12, pKi or pIC50 [8]?
**A.** 8.39

**Q.** What about the nM IC50, HIV-1 NL4.3, PBMC donor 1 [8] of the same binder?
**A.** > 67 nM

**Q.** What about the nM IC50, HIV-1 NL4.3, PBMC donor 2 [8] of the same binder?
**A.** 36.7 nM

**Q.** What about the nM IC50, HIV-1 UG270, PBMC donor 1 [8] of the same binder?
**A.** > 67 nM

**Q.** What about the nM IC50, HIV-1 UG270, PBMC donor 2 [8] of the same binder?
**A.** > 67 nM

**Q.** What about the IC50 (read off the curve) [9] of the same binder?
**A.** 4 nM

**Q.** What about the Displacem. (%) [10] of the same binder?
**A.** 103%

**Q.** What about the pKi [10] of the same binder?
**A.** 8.55
